Data reported in patent US20070196377A1 (Daiichi Sankyo, published 2007).

Target: Rac1 expressed as an N-terminal GST-fusion protein (Bos taurus (Bovine), UniProt P62998 1-189)
Test: GST pull-down, anti-FLAG Western blot
Description: Each cell lysate was subjected to a pull-down assay for detecting the binding of the hj03796 DH/PH, or the proto-Db1 DH/PH, to a Rho family protein. 300 μL of each cell lysate, 20 μL of Glutathione Sepharose 4B in the lysis buffer, and 100 μL of the lysis buffer were mixed. Each sample was prepared in such a way that the final concentration of MgCl₂ and dithiothreitol (DTT) was 1 mM. After reacting at 4° C. for 1 hour with rotating by rotator, each sample washed three times with 1 mL of cold lysis buffer (the final concentration of MgCl₂ was 1 mM) by centrifigation at 1,000 rpm for 15 seconds at 4° C. After washing and removing the supernatant, the Glutathione Sepharose 4B was added with 40 μL of a solution that was prepared by mixing SDS-PAGE sample buffer (the same composition as in Example 2) with an equal volume of the lysis buffer. After that, it was mixed with a mixer and subjected to a heat treatment at 100° C. for 5 minutes, to prepare a sample for electrophoresis. SDS-polyacrylamide gel electrophoresis was carried out, and then the gel was equilibrated for 5 minutes or more in a blotting buffer (the same composition as in Example 2). The proteins were transferred onto a PVDF membrane. After blotting, the PVDF membrane was subjected to blocking at 4° C. overnight, in TBS-T+BA (the same composition as in Example 2). […]

B1: proto-Db1 DH/PH (C-terminal FLAG-tagged protein) (other)
chain: MAVLKNHVLNELIQTERVYVRELYTVLLGYRAEMDNPEMFDLMPPLLRNKKDILFGNMAEIYEFHNDIFLSSLENCAHAPERVGPCFLERKDDFQMYAKYCQNKPRSETIWRKYSECAFFQECQRKLKHRLRLDSYLLKPVQRITKYQLLLKELLKYSKDCEGSALLKKALDAMLDLLKSVNDSMHQIAINGYIGNLNELGKMIMQGGFSVWIGHKKGATKMKDLARFKPMQRHLFLYEKAIVFCKRRVESGEGSDRYPSYSFKHCWKMDEVGITEYVKGDNRKFEIWYGEKEEVYIVQASNVDVKMTWLKEIRNILLKQ
notes: Positive control; also called DH/PH domain of proto Db1; deletion mutant of proto-Db1; not shown: C-terminal FLAG tag of vector pFLAG-CMV5a
B1: no binding.
